Measured values from patent US20110124071A1, “METHODS AND COMPOSITIONS FOR PRODUCING HYDROCARBONS” (priority 2009, published 2011).

Tests used:
[1] = tested on: E. coli MG1655; assay: Coexpression of putative decarbonylase with S. elongatus PCC7942 orf1594 in E. coli, GC-MS of extracts; assay type: cell-based; details: coexpressed with S. elongatus PCC7942 orf1594 in E. coli MG1655, M9 minimal media
Method: After a 1 μl splitless injection (inlet temperature held at 300° C.) onto the GC/MS column, the oven was held at 100° C. for 3 mins. The temperature was ramped up to 320° C. at a rate of 20° C./min. The oven was held at 320° C. for an additional 5 min. The flow rate of the carrier gas helium was 1.3 ml/min. The MS quadrapole scanned from 50 to 550 m/z. Retention times and fragmentation patterns of product peaks were compared with authentic references to confirm peak identity.
The genomic DNA encoding Synechococcus elongatus PCC7942 orf1594 (YP—400611; putative aldehyde-generating enzyme) (SEQ ID NO: 65) was amplified and cloned into the NcoI and EcoRI sites of vector OP-80 (pCL1920 derivative) under the control of the Ptrc promoter. The resulting construct (“OP80-PCC7942—1594”) was transformed into E. coli MG1655 and the cells were grown at 37° C. in M9 minimal media with 1% (w/v) glucose as carbon source and supplemented with 100 μg/ml spectinomycin. When the culture reached OD600 of 0.8-1.0, it was induced with 1 mM IPTG and cells were grown for an additional 18-20 h at 37° C. Cells from 0.5 ml of culture were extracted with 0.5 ml of ethyl acetate. After sonication for 60 min, the sample was centrifuged at 15,000 rpm for 5 min. The solvent layer was analyzed by GC-MS as described in Example 1.
The genomic DNA encoding Synechococcus elongatus PCC7942 orf1593 (YP—400610; putative decarbonylase) (SEQ ID NO: 1) was amplified and cloned into the NdeI and XhoI sites of vector OP-183 (pACYC derivative) under the control of the Ptrc promoter. The resulting construct was cotransformed with OP80-PCC7942—1594 into E. coli MG1655 and the cells were grown at 37° C. in M9 minimal media supplemented with 100 μg/ml spectinomycin and 100 μg/ml carbenicillin. The cells were cultured and extracted as in Example 3 and analyzed by GC-MS as described in Example 1. […]

[2] = In vitro decarbonylation enzyme assay with purified Npun02004178 protein, GC/MS; assay type: biochemical; details: 30 μM protein, 200 μM octadecanal, spinach ferredoxin, ferredoxin reductase, 1 mM NADPH, 37° C., 2 h
Method: The genomic DNA encoding N. punctiforme PCC73102 Npun02004178 (SEQ ID NO: 5) was cloned into the NdeI and XhoI sites of vector pET-15b under the control of the T7 promoter. The resulting Npun02004178 protein contained an N-terminal His-tag. An E. coli BL21 strain (DE3) (Invitrogen) was transformed with the plasmid by routine chemical transformation techniques. Protein expression was carried out by first inoculating a colony of the E. coli strain in 5 ml of LB media supplemented with 100 mg/L of carbenicillin and shaken overnight at 37° C. to produce a starter culture. This starter cultures was used to inoculate 0.5 L of LB media supplemented with 100 mg/L of carbenecillin. […] Protein concentration was determined using the Bradford assay (Biorad). […]
To test Npun02004178 protein for decarbonylation activity, the following enzyme assays were set-up. […] Samples were analyzed by GC/MS using the following parameters: run time: 13.13 min; column: HP-5-MS Part No. 19091S-433E (length of 30 meters; I.D.: 0.25 mm narrowbore; film: 0.25ìM); inject: 1ìl Agilent 6850 inlet; inlet: 300 C splitless; carrier gas: helium; flow: 1.3 ml/min; oven temp: 75° C. hold 5 min, 320 at 40° C./min, 320 hold 2 min; det: Agilent 5975B VL MSD; det. temp: 330° C.; scan: 50-550 M/Z. Heptadecane from Sigma was used as an authentic reference for determining compound retention time and fragmentation pattern.

[3] = tested on: E. coli MG1655 ΔfadD lacZ::Ptrc-′tesA; assay: Heterologous expression in a fatty aldehyde-producing E. coli strain with MSMEG—5739, GC-MS; assay type: cell-based; details: decarbonylase coexpressed with carboxylic acid reductase MSMEG—5739

B1: Npun02004178: Nostoc punctiforme PCC73102 putative decarbonylase (SEQ ID NO: 5) (protein)
chain: MQQLTDQSKELDFKSETYKDAYSRINAIVIEGEQEAHENYITLAQLLPESHDELIRLSKMESRHKKGFEACGRNLAVTPDLQFAKEFFSGLHQNFQTAAAEGKVVTCLLIQSLIIECFAIAAYNIYIPVADDFARKITEGVVKEEYSHLNFGEVWLKEHFAESKAELELANRQNLPIVWKMLNQVEGDAHTMAMEKDALVEDFMIQYGEALSNIGFSTRDIMRLSAYGLIGA
modifications: Nostoc punctiforme
- fatty aldehyde decarbonylase activity (alkane/alkene production) [1]: active fatty aldehyde decarbonylase
- in-vitro conversion of octadecanal to heptadecane [2]: in-vitro conversion of octadecanal to heptadecane was observed
- conversion of fatty aldehydes provided by MSMEG—5739 to alkanes [3]: produced tridecane, pentadecene and pentadecane
